Data taken from patent publication US20250340660A1 (published 2025).

Legend:
[1] = molecular target: T1, human CD30L (recombinant protein) (human, UniProt P32971 63-234); assay: Carterra, human CD30L
T1 construct: also called rhCD30L; TNFSF8
T1 sequence: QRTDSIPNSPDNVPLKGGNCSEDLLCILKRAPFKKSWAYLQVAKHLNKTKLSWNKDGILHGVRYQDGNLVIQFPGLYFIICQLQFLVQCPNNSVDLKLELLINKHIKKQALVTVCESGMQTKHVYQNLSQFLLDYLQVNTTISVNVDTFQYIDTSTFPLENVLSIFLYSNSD

[2] = molecular target: T2, recombinant human CD30L protein (human, UniProt P32971 63-234, limits assumed); assay: ELISA, hybridoma supernatant 1/5000 dil, recombinant human CD30L
T2 construct: also called huCD30L; rhCD30L
T2 sequence (looked up): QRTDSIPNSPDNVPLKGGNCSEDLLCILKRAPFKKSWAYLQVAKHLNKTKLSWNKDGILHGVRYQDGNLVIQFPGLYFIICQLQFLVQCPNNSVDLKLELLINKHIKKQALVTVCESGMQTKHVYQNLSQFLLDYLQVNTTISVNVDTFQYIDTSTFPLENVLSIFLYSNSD

[3] = molecular target: T3, human CD30L expressed on cells (human, UniProt P32971 1-234); assay: flow cytometry, hybridoma supernatant 1/50 dil, cells expressing human CD30L
T3 construct: also called huCD30L; TNFSF8
T3 sequence: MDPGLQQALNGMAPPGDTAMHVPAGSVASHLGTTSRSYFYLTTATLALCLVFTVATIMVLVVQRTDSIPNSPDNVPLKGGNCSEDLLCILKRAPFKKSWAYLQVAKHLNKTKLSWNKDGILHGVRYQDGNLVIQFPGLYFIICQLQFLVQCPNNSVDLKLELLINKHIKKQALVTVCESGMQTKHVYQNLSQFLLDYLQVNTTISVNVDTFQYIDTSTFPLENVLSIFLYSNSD

[4] = molecular target: T2, recombinant human CD30L protein; assay: ELISA, hybridoma supernatant 1/500 dil, recombinant human CD30L
[5] = molecular target: T2, recombinant human CD30L protein; assay: ELISA, hybridoma supernatant 1/50 dil, recombinant human CD30L
[6] = molecular target: T4, cynomolgus CD30L expressed on cells (cynomolgus, UniProt A0A7N9CVX7 1-234); assay: flow cytometry, hybridoma supernatant 1/50 dil, cells expressing cynomolgus CD30L
T4 construct: whole, on cells; also called cyCD30L; cyno CD30L
T4 sequence: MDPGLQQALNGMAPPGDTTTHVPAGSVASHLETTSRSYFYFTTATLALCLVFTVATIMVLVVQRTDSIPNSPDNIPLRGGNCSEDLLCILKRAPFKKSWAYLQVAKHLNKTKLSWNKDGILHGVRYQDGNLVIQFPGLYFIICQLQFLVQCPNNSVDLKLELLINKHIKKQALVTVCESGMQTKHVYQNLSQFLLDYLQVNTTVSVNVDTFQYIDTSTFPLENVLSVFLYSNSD

recombinant human CD30L = molecular target: T5, recombinant human CD30L (human, UniProt P32971 63-234, limits assumed); assay: biosensor: antibody captured, CD30L bound, competitor rhCD30 added; signal of CD30 association (over 0.15 = non-blocking)
T5 construct: also called rhCD30L; TNFSF8
T5 sequence (looked up): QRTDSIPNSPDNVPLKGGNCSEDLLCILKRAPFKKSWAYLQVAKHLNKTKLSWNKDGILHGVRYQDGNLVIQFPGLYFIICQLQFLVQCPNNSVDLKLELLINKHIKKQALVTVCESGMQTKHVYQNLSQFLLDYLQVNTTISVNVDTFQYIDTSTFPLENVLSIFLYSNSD
Procedure: Briefly, individual anti-human biosensors were loaded with purified IgG (normalized to 10 μg/mL) and a baseline was measured for each biosensor. Biosensors were saturated with biotin and with polyclonal huIgG and a baseline was measured. […] Biosensors were moved to buffer wells to measure the dissociation rate.

B1: anti-CD30L antibody clone 63 (antibody, V domains shown)
VH: EVQLVESGGGLVQPGGSLRLSCAASGFMFSSYSMNWVRQAPGKGLEWVSYISSSSSTIYDADSVKGRFTISRDDAKNSLYLQMNSLRDEDTAVYYCTREAYPGYYYNYMDVWGKGTTVTVSS
VL: DIQMTQSPSSLSASVGDRVTITCRASQSISSRLAWYQQKPGKAPNLLIYKASNLESGVPSRFSGSGSGTEFTLTISSLQPDDFATYYCQQYNSYSRTFGQGTKVEIK
notes: Purified recombinant antibody
Binder B1 has a Kd [1] of 1.85 nM.

B2: anti-CD30L antibody Clone 3 (parental, hybridoma) (antibody, V domains shown)
VH: QVQLQESGPGLVKPSETLSLTCTVSGGSISGYYWSWIRQPPVKGLEWIGYIFYSGYTKYNPSLKSRVTISVDTSKNQFSLKLSSVTAADTAVYYCARDRWDFDYWGQGALVTVSS
VL: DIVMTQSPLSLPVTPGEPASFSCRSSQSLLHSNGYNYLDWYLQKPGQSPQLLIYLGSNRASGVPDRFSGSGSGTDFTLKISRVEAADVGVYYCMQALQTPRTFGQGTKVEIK
notes: Tested as diluted hybridoma supernatant from mice with a humanized immunoglobulin locus
With B2 the “Elisa Binding (OD)” value [2] was 0.662 OD, the “Cell Binding (MFI)” value [3] was 153 MFI and the “Elisa Binding (OD)” value [4] was 2.54 OD. For the same binder, the “Elisa Binding (OD)” value [5] was 3.5 OD and the “Cell Binding (MFI)” value [6] was 72.4 MFI.

B3: anti-CD30L antibody clone 64 (antibody, V domains shown)
VH: EVQLVESGGGLVQPGGSLRLSCAASGFTFSNYAMTWVRQAPGKGLEWVSAISGFGGSTYYADSVKGRFTISRDNSKNTLYLQMNSLRAEDTAVYYCAKDHDYYAFDYWGQGTLVTVSS
VL: not shown
notes: Purified recombinant antibody
For B3, the Kd [1] was 1.57 nM.

B4: anti-CD30L antibody clone 65 (antibody, V domains shown)
VH: EVQLVESGGGLVQPGGSLKLSCAASGFTFSNYAMTWVRQAPGKGLEWVSAISGYGGSTYYAASVKGRFTISRDNSKNTLFLQMNSLRAEDTAVYYCAKDHDYYAFDYWGQGTLVPVSS
VL: not shown
notes: Purified recombinant antibody
With B4 the Kd [1] was 1.52 nM.

B5: anti-CD30L antibody clone 80 (antibody, V domains shown)
VH: EVQLVESGGGLVQPGGSLRLSCEVSGFTFSSYDMHWVRQVTGTGLEWVSSIGIGGDTYYPGSVKGRFTISRENAKNSLYLQMNSLRGGDTGVYYCARGEWDLLWYFMDVWGKGTTVTVSS
VL: DIQMTQSPSSLSASIGDRVTITCRASQGISSWLAWYQQKPGKAPKLLIYAASSLQSGVPSRFSGSGSGTDFTLTISSLQPEDFATYYCQQANSFPLTFGGGTKVEIK
notes: Purified recombinant antibody
B5 showed a Kd [1] of 3.54 nM.

B6: anti-CD30L antibody clone 82 (antibody, V domains shown)
VH: EVQLVESGGGLVQPGGSLRLSCAVSGITFSNAWMSWVRQAPGKGLEWVGRIKSKTYGGTTDYAAPVKGRFIISRDDSKDTLYLQMNSLKTEDTAIYYCTTDPWNYVNYNYFMDVWGKGTTVTVSS
VL: DIQMTQSPSSLSASVGDRVTITCRASQDIRNYLAWYQQKPGKITHLLVYAASTLQSGVPSRFSGSGSGTDFTLTINSLQPEDVATYYCQNYFSVPLTFGGGTKVEIK
notes: Purified recombinant antibody
For B6, the Kd [1] was 0.559 nM.

B7: anti-CD30L antibody Clone 4 (parental, hybridoma) (antibody, V domains shown)
VH: QVQLVESGGGVVQPGRSLRLSCAASGFPFSSYGMHWVRQAPGKGLEWVTFIWFDGNNKDYADSVKGRFSVSRDNSKNTLYLQMNSLRADDTAVYYCARNGVYYGSGAYVDYWGQGTLVTVSS
VL: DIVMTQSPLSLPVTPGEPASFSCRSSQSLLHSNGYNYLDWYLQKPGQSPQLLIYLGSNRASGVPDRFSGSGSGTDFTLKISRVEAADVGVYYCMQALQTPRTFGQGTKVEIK
notes: as for B2
B7 was tested, and the “Elisa Binding (OD)” value [2] was 0.68 OD, the “Cell Binding (MFI)” value [3] was 151 MFI and the “Elisa Binding (OD)” value [4] was 2.65 OD. The “Elisa Binding (OD)” value [5] was 3.08 OD and the “Cell Binding (MFI)” value [6] was 67.8 MFI.

B8: anti-CD30L antibody clone 63 (antibody, V domains shown)
VH: EVQLVESGGGLVQPGGSLRLSCAASGFMFSSYSMNWVRQAPGKGLEWVSYISSSSSTIYDADSVKGRFTISRDDAKNSLYLQMNSLRDEDTAVYYCTREAYPGYYYNYMDVWGKGTTVTVSS
VL: DIQMTQSPSSLSASVGDRVTITCRASQSISSRLAWYQQKPGKAPNLLIYKASNLESGVPSRFSGSGSGTEFTLTISSLQPDDFATYYCQQYNSYSRTFGQGTKVEIK
notes: purified recombinant IgG, humanized mouse strain #1; also called Clone ID 63
B8 was tested, and the “rhCD30L:rhCD30 Blocking” value (recombinant human CD30L) was 0.0592 relative units.
